This note sets out measurements from article PMC13157019 (eBioMedicine, 2026).

Experiment in all cases: SPR
The target in assay [1] is human Langerin ectodomain (recombinant) (Homo sapiens, UniProt Q9UJ71).
The target of assay [2] is mouse Langerin ectodomain (recombinant) (Mus musculus, UniProt Q8VBX4).
Assay [3] concerns the target T1, rabbit Langerin ectodomain (recombinant) (rabbit).
T1 chain: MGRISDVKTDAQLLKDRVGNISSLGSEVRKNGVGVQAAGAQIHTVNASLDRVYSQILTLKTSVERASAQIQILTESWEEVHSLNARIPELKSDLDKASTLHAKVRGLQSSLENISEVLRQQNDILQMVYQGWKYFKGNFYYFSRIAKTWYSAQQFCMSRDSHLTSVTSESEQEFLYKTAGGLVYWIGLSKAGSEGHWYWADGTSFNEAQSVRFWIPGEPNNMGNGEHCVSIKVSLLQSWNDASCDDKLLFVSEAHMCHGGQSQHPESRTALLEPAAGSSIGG

The Kd is the equilibrium constant for the complex coming apart.

Sequence of human Langerin ectodomain (recombinant) (Q9UJ71 65-328): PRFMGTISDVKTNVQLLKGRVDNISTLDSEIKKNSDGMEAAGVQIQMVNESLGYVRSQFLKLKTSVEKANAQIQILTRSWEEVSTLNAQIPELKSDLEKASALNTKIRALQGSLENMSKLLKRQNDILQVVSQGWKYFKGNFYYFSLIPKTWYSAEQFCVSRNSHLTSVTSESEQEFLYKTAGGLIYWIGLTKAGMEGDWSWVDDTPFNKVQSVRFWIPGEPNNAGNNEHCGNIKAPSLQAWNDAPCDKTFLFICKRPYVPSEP
Sequence of mouse Langerin ectodomain (recombinant) (Q8VBX4 63-331): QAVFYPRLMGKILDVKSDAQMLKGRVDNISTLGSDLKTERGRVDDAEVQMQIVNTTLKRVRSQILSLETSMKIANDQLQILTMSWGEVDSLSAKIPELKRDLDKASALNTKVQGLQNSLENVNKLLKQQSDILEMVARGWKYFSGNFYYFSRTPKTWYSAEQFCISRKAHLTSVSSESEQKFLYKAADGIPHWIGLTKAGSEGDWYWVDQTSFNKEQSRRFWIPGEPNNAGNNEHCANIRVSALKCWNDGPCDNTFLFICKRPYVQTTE

B1: LC^3.Env^3 (fibritin-stabilised HIV-1 Env gp140z trimer fused to three scFv of the anti-Langerin 4C7 mAb) (scFv, V domains shown)
VH: QVQLQQSGAELVRPGASVTLSCKASGYTFIDHDMHWVQQTPVYGLEWIGAIDPETGDTGYNQKFKGKAILTADKSSRTAYMELRSLTSEDSAVYYCTIPFYYSNYSPFAYWGQGTLVTVSA
VL: QIVLSQSPAILSASPGEKVTMTCRASSSVSYMHWYQRKPGSSPKPWIYATSNLASGVPARFSGSGSGTSYSLTISRVEAEDAATYYCQQWSSNPLTFGAGTKLELK
Take B1: the Kd in assay [1], in assay [2] and in assay [3] was around 3.5 nM in each case.

B2: LC.Env (anti-Langerin 4C7 mAb fused to HIV-1 envelope gp140z from clade C 96ZM651) (antibody, V domains shown)
VH: B1 VH
VL: B1 VL
On to B2, for which the equilibrium dissociation constant (Kd) in assay [1], in assay [2] and in assay [3] was around 0.7 nM in each case.
